In the experiment the target is T1, human amylin receptor (amylin 3(a) receptor: human calcitonin receptor with RAMP-3) (human, UniProt P30988 25-474; O60896 24-148).
T1 construct: whole, on cells; also called hAmylin-R; hAmylinR
T1 sequence (looked up) 1: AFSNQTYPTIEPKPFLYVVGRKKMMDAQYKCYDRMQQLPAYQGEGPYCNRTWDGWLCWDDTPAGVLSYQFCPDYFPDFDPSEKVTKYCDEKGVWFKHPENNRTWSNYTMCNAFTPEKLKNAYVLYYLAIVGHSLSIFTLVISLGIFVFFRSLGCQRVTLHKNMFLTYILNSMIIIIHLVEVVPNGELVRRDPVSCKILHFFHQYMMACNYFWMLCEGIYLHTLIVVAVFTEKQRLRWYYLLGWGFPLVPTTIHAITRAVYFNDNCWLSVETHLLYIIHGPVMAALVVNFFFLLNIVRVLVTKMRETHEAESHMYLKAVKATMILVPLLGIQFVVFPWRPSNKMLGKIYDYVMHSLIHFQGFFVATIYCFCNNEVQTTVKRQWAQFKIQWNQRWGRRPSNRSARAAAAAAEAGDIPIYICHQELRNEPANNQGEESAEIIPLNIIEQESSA
T1 sequence (looked up) 2: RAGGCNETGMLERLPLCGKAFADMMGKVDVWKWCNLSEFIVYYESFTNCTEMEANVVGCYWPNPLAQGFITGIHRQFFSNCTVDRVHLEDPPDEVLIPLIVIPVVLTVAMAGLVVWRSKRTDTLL
The experiment is described as follows: SPA displacement of 125I-rat amylin, hAmylin 3(a) receptor membranes. The method in brief:
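One-site competition analysis of SPA counts yielded IC₅₀ as a measure of affinity. Membranes were at 35 ng/μL final; incubation was 120 min at 25° C, pH 7.4.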
Background: In a radioligand displacement assay an active substance lowers the binding of a labelled ligand.

One may read the IC50 as the concentration that inhibits the measured activity by half.

Numbered stars: 1 amine (or outer) side, 2 acyl side, 3 side chain; on linkers, the order of the positions; unused ones are H or OH. Bridge positions count the residues as written; N and C are the ends. Side chains are listed from the residue outwards. Ends that are not written are not given here. * marks the point of attachment. C20 diacid = O=C(O)CCCCCCCCCCCCCCCCCCC(=O)*; γGlu = O=C(O)[C@H](CCC(=O)[*:2])N[*:1]

B1: N^ε1-[(4S)-4-carboxy-4-[[(4S)-4-carboxy-4-(19-carboxynonadecanoylamino)butanoyl]amino]butanoyl]-[Asp14,Arg17,Pro21,Pro26,Asp35]-h-amylin (peptide)
peptide: K([γGlu-γGlu-C20 diacid])CNTATCATQRLADFLRHSSPNFGAPLSSTNVGSDTY-NH2
modifications: disulfide 2-7; N-terminus assumed
SMILES: CC(C)C[C@H](NC(=O)[C@H](CCCNC(=N)N)NC(=O)[C@H](CCC(N)=O)NC(=O)[C@@H](NC(=O)[C@H](C)NC(=O)[C@@H]1CSSC[C@H](NC(=O)[C@@H](N)CCCCNC(=O)CC[C@H](NC(=O)CC[C@H](NC(=O)CCCCCCCCCCCCCCCCCCC(=O)O)C(=O)O)C(=O)O)C(=O)N[C@@H](CC(N)=O)C(=O)N[C@@H]([C@@H](C)O)C(=O)N[C@@H](C)C(=O)N[C@@H]([C@@H](C)O)C(=O)N1)[C@@H](C)O)C(=O)N[C@@H](C)C(=O)N[C@@H](CC(=O)O)C(=O)N[C@@H](Cc1ccccc1)C(=O)N[C@@H](CC(C)C)C(=O)N[C@@H](CCCNC(=N)N)C(=O)N[C@@H](Cc1c[nH]cn1)C(=O)N[C@@H](CO)C(=O)N[C@@H](CO)C(=O)N1CCC[C@H]1C(=O)N[C@@H](CC(N)=O)C(=O)N[C@@H](Cc1ccccc1)C(=O)NCC(=O)N[C@@H](C)C(=O)N1CCC[C@H]1C(=O)N[C@@H](CC(C)C)C(=O)N[C@@H](CO)C(=O)N[C@@H](CO)C(=O)N[C@H](C(=O)N[C@@H](CC(N)=O)C(=O)N[C@H](C(=O)NCC(=O)N[C@@H](CO)C(=O)N[C@@H](CC(=O)O)C(=O)N[C@H](C(=O)N[C@@H](Cc1ccc(O)cc1)C(N)=O)[C@@H](C)O)C(C)C)[C@@H](C)O
notes: also called compound 1
Consider B1, for which the IC50 was 1.18 nM.

B2: N^ε1-[(4S)-4-carboxy-4-[[(4S)-4-carboxy-4-(19-carboxynonadecanoylamino)butanoyl]amino]butanoyl]-[Asp14,Arg17,Pro21,Pro27,Arg35]-h-amylin (peptide)
peptide: K([γGlu-γGlu-C20 diacid])CNTATCATQRLADFLRHSSPNFGAIPSSTNVGSRTY-NH2
modifications: disulfide 2-7; N-terminus assumed
SMILES: CC[C@H](C)[C@H](NC(=O)[C@H](C)NC(=O)CNC(=O)[C@H](Cc1ccccc1)NC(=O)[C@H](CC(N)=O)NC(=O)[C@@H]1CCCN1C(=O)[C@H](CO)NC(=O)[C@H](CO)NC(=O)[C@H](Cc1c[nH]cn1)NC(=O)[C@H](CCCNC(=N)N)NC(=O)[C@H](CC(C)C)NC(=O)[C@H](Cc1ccccc1)NC(=O)[C@H](CC(=O)O)NC(=O)[C@H](C)NC(=O)[C@H](CC(C)C)NC(=O)[C@H](CCCNC(=N)N)NC(=O)[C@H](CCC(N)=O)NC(=O)[C@@H](NC(=O)[C@H](C)NC(=O)[C@@H]1CSSC[C@H](NC(=O)[C@@H](N)CCCCNC(=O)CC[C@H](NC(=O)CC[C@H](NC(=O)CCCCCCCCCCCCCCCCCCC(=O)O)C(=O)O)C(=O)O)C(=O)N[C@@H](CC(N)=O)C(=O)N[C@@H]([C@@H](C)O)C(=O)N[C@@H](C)C(=O)N[C@@H]([C@@H](C)O)C(=O)N1)[C@@H](C)O)C(=O)N1CCC[C@H]1C(=O)N[C@@H](CO)C(=O)N[C@@H](CO)C(=O)N[C@H](C(=O)N[C@@H](CC(N)=O)C(=O)N[C@H](C(=O)NCC(=O)N[C@@H](CO)C(=O)N[C@@H](CCCNC(=N)N)C(=O)N[C@H](C(=O)N[C@@H](Cc1ccc(O)cc1)C(N)=O)[C@@H](C)O)C(C)C)[C@@H](C)O
notes: also called 52; compound 52
As for B2, the concentration for half-maximal inhibition (IC50) was found to be 0.697 nM.

B3: N^ε1-[(4S)-4-carboxy-4-[[(4S)-4-carboxy-4-(19-carboxynonadecanoylamino)butanoyl]amino]butanoyl]-[Asp14,Arg17,Pro22,Pro26,Asp35]-h-amylin (peptide)
peptide: K([γGlu-γGlu-C20 diacid])CNTATCATQRLADFLRHSSNPFGAPLSSTNVGSDTY-NH2
modifications: disulfide 2-7; N-terminus assumed
SMILES: CC(C)C[C@H](NC(=O)[C@H](CCCNC(=N)N)NC(=O)[C@H](CCC(N)=O)NC(=O)[C@@H](NC(=O)[C@H](C)NC(=O)[C@@H]1CSSC[C@H](NC(=O)[C@@H](N)CCCCNC(=O)CC[C@H](NC(=O)CC[C@H](NC(=O)CCCCCCCCCCCCCCCCCCC(=O)O)C(=O)O)C(=O)O)C(=O)N[C@@H](CC(N)=O)C(=O)N[C@@H]([C@@H](C)O)C(=O)N[C@@H](C)C(=O)N[C@@H]([C@@H](C)O)C(=O)N1)[C@@H](C)O)C(=O)N[C@@H](C)C(=O)N[C@@H](CC(=O)O)C(=O)N[C@@H](Cc1ccccc1)C(=O)N[C@@H](CC(C)C)C(=O)N[C@@H](CCCNC(=N)N)C(=O)N[C@@H](Cc1c[nH]cn1)C(=O)N[C@@H](CO)C(=O)N[C@@H](CO)C(=O)N[C@@H](CC(N)=O)C(=O)N1CCC[C@H]1C(=O)N[C@@H](Cc1ccccc1)C(=O)NCC(=O)N[C@@H](C)C(=O)N1CCC[C@H]1C(=O)N[C@@H](CC(C)C)C(=O)N[C@@H](CO)C(=O)N[C@@H](CO)C(=O)N[C@H](C(=O)N[C@@H](CC(N)=O)C(=O)N[C@H](C(=O)NCC(=O)N[C@@H](CO)C(=O)N[C@@H](CC(=O)O)C(=O)N[C@H](C(=O)N[C@@H](Cc1ccc(O)cc1)C(N)=O)[C@@H](C)O)C(C)C)[C@@H](C)O
notes: also called compound 3
On to B3, for which the IC50 was found to be 1.13 nM.

B4: N^ε1-[(4S)-4-carboxy-4-[[(4S)-4-carboxy-4-(19-carboxynonadecanoylamino)butanoyl]amino]butanoyl]-[Asp14,Arg17,Pro21,Pro27,Asp35]-h-amylin (peptide)
peptide: K([γGlu-γGlu-C20 diacid])CNTATCATQRLADFLRHSSPNFGAIPSSTNVGSDTY-NH2
modifications: disulfide 2-7; N-terminus assumed
SMILES: CC[C@H](C)[C@H](NC(=O)[C@H](C)NC(=O)CNC(=O)[C@H](Cc1ccccc1)NC(=O)[C@H](CC(N)=O)NC(=O)[C@@H]1CCCN1C(=O)[C@H](CO)NC(=O)[C@H](CO)NC(=O)[C@H](Cc1c[nH]cn1)NC(=O)[C@H](CCCNC(=N)N)NC(=O)[C@H](CC(C)C)NC(=O)[C@H](Cc1ccccc1)NC(=O)[C@H](CC(=O)O)NC(=O)[C@H](C)NC(=O)[C@H](CC(C)C)NC(=O)[C@H](CCCNC(=N)N)NC(=O)[C@H](CCC(N)=O)NC(=O)[C@@H](NC(=O)[C@H](C)NC(=O)[C@@H]1CSSC[C@H](NC(=O)[C@@H](N)CCCCNC(=O)CC[C@H](NC(=O)CC[C@H](NC(=O)CCCCCCCCCCCCCCCCCCC(=O)O)C(=O)O)C(=O)O)C(=O)N[C@@H](CC(N)=O)C(=O)N[C@@H]([C@@H](C)O)C(=O)N[C@@H](C)C(=O)N[C@@H]([C@@H](C)O)C(=O)N1)[C@@H](C)O)C(=O)N1CCC[C@H]1C(=O)N[C@@H](CO)C(=O)N[C@@H](CO)C(=O)N[C@H](C(=O)N[C@@H](CC(N)=O)C(=O)N[C@H](C(=O)NCC(=O)N[C@@H](CO)C(=O)N[C@@H](CC(=O)O)C(=O)N[C@H](C(=O)N[C@@H](Cc1ccc(O)cc1)C(N)=O)[C@@H](C)O)C(C)C)[C@@H](C)O
notes: also called compound 2
Regarding B4, the IC50 came out at 0.411 nM.

B5: N^ε1-[(4S)-4-carboxy-4-[[(4S)-4-carboxy-4-(19-carboxynonadecanoylamino)butanoyl]amino]butanoyl]-[Glu14,Arg17,Pro21,Pro27,Arg34]-h-amylin (peptide)
peptide: K([γGlu-γGlu-C20 diacid])CNTATCATQRLAEFLRHSSPNFGAIPSSTNVGRNTY-NH2
modifications: disulfide 2-7; N-terminus assumed
SMILES: CC[C@H](C)[C@H](NC(=O)[C@H](C)NC(=O)CNC(=O)[C@H](Cc1ccccc1)NC(=O)[C@H](CC(N)=O)NC(=O)[C@@H]1CCCN1C(=O)[C@H](CO)NC(=O)[C@H](CO)NC(=O)[C@H](Cc1c[nH]cn1)NC(=O)[C@H](CCCNC(=N)N)NC(=O)[C@H](CC(C)C)NC(=O)[C@H](Cc1ccccc1)NC(=O)[C@H](CCC(=O)O)NC(=O)[C@H](C)NC(=O)[C@H](CC(C)C)NC(=O)[C@H](CCCNC(=N)N)NC(=O)[C@H](CCC(N)=O)NC(=O)[C@@H](NC(=O)[C@H](C)NC(=O)[C@@H]1CSSC[C@H](NC(=O)[C@@H](N)CCCCNC(=O)CC[C@H](NC(=O)CC[C@H](NC(=O)CCCCCCCCCCCCCCCCCCC(=O)O)C(=O)O)C(=O)O)C(=O)N[C@@H](CC(N)=O)C(=O)N[C@@H]([C@@H](C)O)C(=O)N[C@@H](C)C(=O)N[C@@H]([C@@H](C)O)C(=O)N1)[C@@H](C)O)C(=O)N1CCC[C@H]1C(=O)N[C@@H](CO)C(=O)N[C@@H](CO)C(=O)N[C@H](C(=O)N[C@@H](CC(N)=O)C(=O)N[C@H](C(=O)NCC(=O)N[C@@H](CCCNC(=N)N)C(=O)N[C@@H](CC(N)=O)C(=O)N[C@H](C(=O)N[C@@H](Cc1ccc(O)cc1)C(N)=O)[C@@H](C)O)C(C)C)[C@@H](C)O
notes: also called 88; compound 88
For B5, the IC50 came out at 0.75 nM.

B6: N^ε1-[(4S)-4-carboxy-4-[[(4S)-4-carboxy-4-(19-carboxynonadecanoylamino)butanoyl]amino]butanoyl]-[Glu14,Arg17,Pro21,Pro27,Arg35]-h-amylin (peptide)
peptide: K([γGlu-γGlu-C20 diacid])CNTATCATQRLAEFLRHSSPNFGAIPSSTNVGSRTY-NH2
modifications: disulfide 2-7; N-terminus assumed
SMILES: CC[C@H](C)[C@H](NC(=O)[C@H](C)NC(=O)CNC(=O)[C@H](Cc1ccccc1)NC(=O)[C@H](CC(N)=O)NC(=O)[C@@H]1CCCN1C(=O)[C@H](CO)NC(=O)[C@H](CO)NC(=O)[C@H](Cc1c[nH]cn1)NC(=O)[C@H](CCCNC(=N)N)NC(=O)[C@H](CC(C)C)NC(=O)[C@H](Cc1ccccc1)NC(=O)[C@H](CCC(=O)O)NC(=O)[C@H](C)NC(=O)[C@H](CC(C)C)NC(=O)[C@H](CCCNC(=N)N)NC(=O)[C@H](CCC(N)=O)NC(=O)[C@@H](NC(=O)[C@H](C)NC(=O)[C@@H]1CSSC[C@H](NC(=O)[C@@H](N)CCCCNC(=O)CC[C@H](NC(=O)CC[C@H](NC(=O)CCCCCCCCCCCCCCCCCCC(=O)O)C(=O)O)C(=O)O)C(=O)N[C@@H](CC(N)=O)C(=O)N[C@@H]([C@@H](C)O)C(=O)N[C@@H](C)C(=O)N[C@@H]([C@@H](C)O)C(=O)N1)[C@@H](C)O)C(=O)N1CCC[C@H]1C(=O)N[C@@H](CO)C(=O)N[C@@H](CO)C(=O)N[C@H](C(=O)N[C@@H](CC(N)=O)C(=O)N[C@H](C(=O)NCC(=O)N[C@@H](CO)C(=O)N[C@@H](CCCNC(=N)N)C(=O)N[C@H](C(=O)N[C@@H](Cc1ccc(O)cc1)C(N)=O)[C@@H](C)O)C(C)C)[C@@H](C)O
notes: also called 89; compound 89
As for B6, the concentration for half-maximal inhibition (IC50) was found to be 1.16 nM.

These data come from patent publication US20140087995A1 (published 2014).
